Measurements taken from US6528630.
Like-named read-outs stand apart in the source and are kept apart here.

Tests used:
[1] = target: α1B-1α2bβ1-3 human neuronal calcium channel (human) (UniProt Q02641); experiment: Bmax of 125I-ω-CgTx GVIA binding, against α1B-1β1-3
[2] = target: α1B-1α2bβ1-3 human neuronal calcium channel (human) (UniProt Q02641); experiment: Bmax of 125I-ω-CgTx GVIA binding, against α1B-2α2bβ1-3
[3] = target: α1B-2α2bβ1-3 human neuronal calcium channel (human) (UniProt Q02641); experiment: Bmax of 125I-ω-CgTx GVIA binding, against α1B-2β1-3
Chain of α1B-2α2bβ1-3 human neuronal calcium channel (human) (Q02641 whole entry): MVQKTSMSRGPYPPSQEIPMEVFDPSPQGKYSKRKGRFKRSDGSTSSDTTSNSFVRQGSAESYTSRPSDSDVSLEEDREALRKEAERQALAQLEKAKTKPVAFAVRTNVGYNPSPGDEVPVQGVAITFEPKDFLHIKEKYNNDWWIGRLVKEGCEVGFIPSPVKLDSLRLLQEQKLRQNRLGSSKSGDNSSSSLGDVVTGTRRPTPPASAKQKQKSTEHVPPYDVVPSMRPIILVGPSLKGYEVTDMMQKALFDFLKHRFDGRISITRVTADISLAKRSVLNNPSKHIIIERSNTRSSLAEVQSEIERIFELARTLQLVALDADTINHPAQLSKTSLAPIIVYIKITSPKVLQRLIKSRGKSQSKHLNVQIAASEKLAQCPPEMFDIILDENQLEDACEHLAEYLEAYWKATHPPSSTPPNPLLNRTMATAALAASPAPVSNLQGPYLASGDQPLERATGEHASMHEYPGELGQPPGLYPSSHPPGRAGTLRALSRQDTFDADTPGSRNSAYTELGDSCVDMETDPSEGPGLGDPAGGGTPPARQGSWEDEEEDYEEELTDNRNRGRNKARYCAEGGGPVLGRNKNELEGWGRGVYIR

[4] = target: α1B-1α2bβ1-2 human neuronal calcium channel (human) (UniProt Q02641); experiment: Bmax of 125I-ω-CgTx GVIA binding, against α1B-1β1-2
Chain of α1B-1α2bβ1-2 human neuronal calcium channel (human) (Q02641 whole entry): as above

[5] = target: α1B-2β1-2 human neuronal calcium channel subunit combination (human) (UniProt Q02641); experiment: saturation binding of 125I-ω-CgTx GVIA to transfected HEK293 cells
Chain of α1B-2β1-2 human neuronal calcium channel subunit combination (human) (Q02641 whole entry): as above

[6] = target: α1B-2α2bβ1-3 human neuronal calcium channel (human) (UniProt Q02641); experiment: as above
[7] = target: α1B-2β1-3 human neuronal calcium channel subunit combination (human) (UniProt Q02641); experiment: as above
Chain of α1B-2β1-3 human neuronal calcium channel subunit combination (human) (Q02641 whole entry): as above

[8] = target: α1B-2α2bβ1-2 human neuronal calcium channel (human) (UniProt Q02641); experiment: as above
Chain of α1B-2α2bβ1-2 human neuronal calcium channel (human) (Q02641 whole entry): as above

[9] = target: α1B-1β1-3 human neuronal calcium channel subunit combination (human) (UniProt Q02641); experiment: as above
Chain of α1B-1β1-3 human neuronal calcium channel subunit combination (human) (Q02641 whole entry): as above

[10] = target: α1B-1α2bβ1-3 human neuronal calcium channel (human) (UniProt Q02641); experiment: as above
[11] = target: α1B-1β1-2 human neuronal calcium channel subunit combination (human) (UniProt Q02641); experiment: as above
Chain of α1B-1β1-2 human neuronal calcium channel subunit combination (human) (Q02641 whole entry): as above

[12] = target: α1B-1α2bβ1-2 human neuronal calcium channel (human) (UniProt Q02641); experiment: as above
[13] = target: α1B-1β1-3 human neuronal calcium channel subunit combination (human) (UniProt Q02641); experiment: Bmax of 125I-ω-CgTx GVIA binding, against α1B-1 alone
[14] = target: α1B-1β1-2 human neuronal calcium channel subunit combination (human) (UniProt Q02641); experiment: as above
[15] = target: α1B-2α2bβ1-3 human neuronal calcium channel (human) (UniProt Q02641); experiment: Bmax of 125I-ω-CgTx GVIA binding, against α1B-2α2bβ1-2
[16] = target: α1B-1α2bβ1-2 human neuronal calcium channel (human) (UniProt Q02641); experiment: as above
[17] = target: α1B-1α2bβ1-3 human neuronal calcium channel (human) (UniProt Q02641); experiment: Bmax of 125I-ω-CgTx GVIA binding, against α1B-1α2bβ1-2
[18] = target: α1B-2α2bβ1-2 human neuronal calcium channel (human) (UniProt Q02641); experiment: Bmax of 125I-ω-CgTx GVIA binding, against α1B-2β1-2
[19] = target: α1B-1α2bβ1-2 human neuronal calcium channel (human) (UniProt Q02641)

Chain of α1B-1α2bβ1-3 human neuronal calcium channel (human) (Q02641 whole entry): as above
Chain of 125I-ω-CgTx GVIA (P01522 46-72 limits assumed): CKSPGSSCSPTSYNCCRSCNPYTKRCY

125I-ω-CgTx GVIA (from UniProt P01522 46-72) (peptide)
fold change of surface receptor density [1]: 10 fold | fold change of binding sites per cell [2]: 2.5 fold | fold change of surface receptor density [3]: 13 fold | fold change of surface receptor density [4]: 8 fold | Bmax [5]: 2130 sites/cell | Kd [5]: 16.4 pM | Bmax [6]: 37700 sites/cell | Kd [6]: 44.3 pM | Bmax [7]: 2940 sites/cell | Kd [7]: 22.2 pM | Bmax [8]: 19400 sites/cell | Kd [8]: 53 pM | Bmax [9]: 8730 sites/cell | Kd [9]: 17.9 pM | Bmax [10]: 91000 sites/cell | Kd [10]: 53.2 pM | Bmax [11]: 5760 sites/cell | Kd [11]: 17.9 pM | Bmax [12]: 45300 sites/cell | Kd [12]: 54.9 pM | fold change of surface binding [13]: 10 fold | fold change of surface binding [14]: 8 fold | fold change of binding capacity [15]: 2 fold | fold change of binding sites per cell [16]: 2.5 fold | fold change of binding capacity [17]: 2 fold | fold change of surface receptor density [18]: 9 fold

ω-CgTx GVIA (from UniProt P01522 46-72) (peptide)
Kd [19]: 54.6 pM | binding capacity (Bmax) (sites per cell) [19]: 28700
